Measured values from patent US20150086481A1, “DIAGNOSIS AND TREATMENT OF PARKINSON'S DISEASE” (MEMORIAL SLOAN-KETTERING CANCER CENTER, priority 2011, published 2015).
“Also recorded” adds a separate entry of the source. Where no end group is shown, it is not given here.

Target: T1, GUCY2C receptor (Mus musculus, UniProt Q3UWA6)
T1 construct: from tissue; host or cells: adult mouse brain (substantia nigra mDA neurons), in vivo after tail vein injection
T1 sequence (Q3UWA6 20-1072): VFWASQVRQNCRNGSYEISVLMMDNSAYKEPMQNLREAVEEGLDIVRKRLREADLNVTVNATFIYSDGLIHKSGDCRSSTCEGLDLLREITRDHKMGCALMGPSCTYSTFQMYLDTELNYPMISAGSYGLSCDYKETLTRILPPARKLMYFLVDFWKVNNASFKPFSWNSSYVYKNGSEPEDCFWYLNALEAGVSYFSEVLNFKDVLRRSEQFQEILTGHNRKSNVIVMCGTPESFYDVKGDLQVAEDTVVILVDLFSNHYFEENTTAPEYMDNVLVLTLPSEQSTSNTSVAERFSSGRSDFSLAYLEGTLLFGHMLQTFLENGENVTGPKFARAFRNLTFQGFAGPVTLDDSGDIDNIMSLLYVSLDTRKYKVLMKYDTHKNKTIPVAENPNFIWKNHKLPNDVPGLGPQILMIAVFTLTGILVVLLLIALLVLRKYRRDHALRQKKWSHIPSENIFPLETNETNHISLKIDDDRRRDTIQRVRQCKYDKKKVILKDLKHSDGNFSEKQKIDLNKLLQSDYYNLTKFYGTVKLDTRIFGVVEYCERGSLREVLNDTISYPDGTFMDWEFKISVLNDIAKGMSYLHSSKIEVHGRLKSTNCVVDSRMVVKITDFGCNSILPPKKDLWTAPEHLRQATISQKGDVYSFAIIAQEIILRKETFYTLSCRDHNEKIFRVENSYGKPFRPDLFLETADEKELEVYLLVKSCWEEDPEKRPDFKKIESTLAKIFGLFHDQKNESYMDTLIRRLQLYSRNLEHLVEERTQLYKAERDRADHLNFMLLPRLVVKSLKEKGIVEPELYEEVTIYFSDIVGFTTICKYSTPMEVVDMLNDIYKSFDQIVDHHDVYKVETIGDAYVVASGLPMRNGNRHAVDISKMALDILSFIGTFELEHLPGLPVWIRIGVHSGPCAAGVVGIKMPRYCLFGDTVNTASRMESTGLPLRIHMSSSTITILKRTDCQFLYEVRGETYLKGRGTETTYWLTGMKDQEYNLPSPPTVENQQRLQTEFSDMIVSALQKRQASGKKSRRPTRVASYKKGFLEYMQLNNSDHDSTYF
Experiment: Autoradiography of sagittal brain sections after tail vein injection of ^131I-guanylin
Type: in vivo
Experimental: The GUCY2C receptor binds to heat stable enterotoxins, to guanylin and to uroguanylin. Guanylin is a 15 amino acid polypeptide (PGTCEICAYAACTGC, SEQ ID NO:1) that contains a tyrosine residue within the middle of its structure (Bryant et al., Life Sci. 86:760-765 (2010)). Guanylin (R&D Systems, Inc., Minneapolis, Minn.) was radiolabeled with ^131Iodine. 1 mCi of ^131I-guanylin was injected in the tail vein of adult mice and animals were sacrificed 10 minutes post-injection without perfusion.

Substance: ^131I-guanylin: Guanylin, a 15 amino acid polypeptide GUCY2C ligand (R&D Systems), radiolabeled with ^131Iodine (PGTCEICAYAACTGC; ends and bridges not checked; also: 131I radiolabel; UniProt Q02747 101-115, looked up)
- crossing of the blood brain barrier (adult mice, 1 mCi tail vein injection, 10 minutes post-injection): crossed the blood brain barrier
- localization of radioactive signal in sagittal brain sections (autoradiography) (adult mice, 1 mCi tail vein injection, sacrificed 10 minutes post-injection without perfusion): localized to the ventricles; also recorded: within the brain parenchyma the only “hot spot” was indeed localized to the GUCY2C expression domain; also recorded: strong emission in the ventricles and SN
- binding to GUCY2C expressing mDA neurons in the SN (adult mouse brain, after tail vein injection, signal specific to TH-expressing mDA neurons): bound to GUCY2C expressing mDA neurons in the SN of the adult brain; also recorded: specific binding to the GUCY2C receptor
